# Assay results taken from patent publication US20240294646A1.
# What was measured:
# FcγRI = FcγRI (UniProt P12314); assay: SPR (ProteOn XPR36), antibody captured on immobilized HER2, FcγR as analyte, equilibrium fit
# FcγRIIIaV = FcγRIIIaV (UniProt P08637); assay: as above
# FcγRIIaH = FcγRIIaH (UniProt P12318); assay: as above
# FcγRIIaR [1] = target: FcγRIIaR (UniProt P12318); assay: as above
# FcγRIIb [2] = target: FcγRIIb (UniProt P31994); assay: as above
# [3] = target: Soluble FcγRIIb extracellular domain with C-terminal 10×His tag (UniProt P31994); assay: SPR (Protocol 2); ratio of FcγRIIb fold to FcγRIIaR fold over wild-type
# [4] = target: Soluble FcγRIIaR extracellular domain with C-terminal 10×His tag (UniProt P12318); assay: SPR (Protocol 2): full-size antibody captured on immobilised HER2, soluble receptor as analyte; fold over wild-type
# [5] = target: Soluble FcγRIIb extracellular domain with C-terminal 10×His tag (UniProt P31994); assay: as above
# FcγRIIaR [6] = target: FcγRIIaR (UniProt P12318); assay: SPR (Protocol 2, Biacore 4000), antibody captured on immobilised HER2, FcγR as analyte
# FcγRIIb [7] = target: FcγRIIb (UniProt P31994); assay: SPR; ratio of IIb-fold to IIaR-fold, FcγRIIaR as comparison receptor
# [8] = target: Recombinant human C1q (C1740, Sigma Aldrich) (human) (UniProt P02745); assay: ELISA; antibody coated on plate, human C1q added; signal as % of wild-type
# FcγRIIb [9] = target: FcγRIIb (UniProt P31994); assay: SPR; trastuzumab FSA variant against soluble FcγRIIb; KD ratio to wild-type FSA v21653
# FcγRIIaR [10] = target: FcγRIIaR (UniProt P12318); assay: SPR; trastuzumab FSA variant against soluble FcγRIIaR; KD ratio to wild-type FSA v21653
# [11] = target: Soluble FcγRIIb extracellular domain with C-terminal 10xHis tag (UniProt P31994); assay: SPR Protocol 2; IIb-Fold relative to control v27294
# [12] = target: Soluble FcγRIIb extracellular domain with C-terminal 10xHis tag (UniProt P31994); assay: SPR Protocol 2; IIb selectivity relative to control v27294
# [13] = target: Soluble FcγRIIb extracellular domain with C-terminal 10xHis tag (UniProt P31994); assay: SPR Protocol 2; ratio IIb-Fold/IIaR-Fold (FcγRIIb against FcγRIIaR)
# [14] = target: Soluble FcγRIIaR extracellular domain with C-terminal 10xHis tag (UniProt P12318); assay: SPR Protocol 2, OAA captured on HER2 chip, receptor as analyte; KD(WT v16463)/KD(variant)
# [15] = target: Soluble FcγRIIb extracellular domain with C-terminal 10xHis tag (UniProt P31994); assay: as above
# [16] = target: Soluble FcγRIIb extracellular domain with C-terminal 10xHis tag (UniProt P31994); assay: SPR (Biacore 4000), antibody captured on immobilised HER2, receptor as analyte
# [17] = target: Soluble FcγRIIaR extracellular domain with C-terminal 10xHis tag (UniProt P12318); assay: SPR, antibody captured on HER2, receptor as analyte
# [18] = target: Soluble FcγRIIb extracellular domain with C-terminal 10xHis tag (UniProt P31994); assay: as above
# [19] = target: Soluble FcγRIIb extracellular domain with C-terminal 10xHis tag (UniProt P31994); assay: SPR; ratio of the fold for FcγRIIb to the fold for FcγRIIaR
# [20] = target: Biotinylated FcγRIIb extracellular domain-Fc fusion (human IgG1 Fc L234A_L235A_D265S) (human) (UniProt P31994); assay: competition electrochemiluminescence (MSD), antibody on HER2-coated plate, biotinylated FcγRIIb-Fc; competitor FcγRIIaR-Fc
# [21] = target: Soluble FcγRIIb extracellular domain with C-terminal 10xHis tag (UniProt P31994); assay: SPR; IIb-Fold / IIaR-Fold
# [22] = target: Soluble FcγRIIaR extracellular domain with C-terminal 10xHis tag (UniProt P12318); assay: SPR; fold change in affinity over WT v16463
# [23] = target: Soluble FcγRIIb extracellular domain with C-terminal 10xHis tag (UniProt P31994); assay: SPR; fold change in affinity over WT v16463
# [24] = target: Soluble FcγRIIaR extracellular domain with C-terminal 10xHis tag (UniProt P12318); assay: SPR, antibody captured on immobilised HER2, soluble receptor as analyte
# [25] = target: Soluble FcγRIIb extracellular domain with C-terminal 10xHis tag (UniProt P31994); assay: as above
# [26] = target: Biotinylated FcγRIIb extracellular domain-Fc fusion (human IgG1 Fc with L234A_L235A_D265S) (human) (UniProt P31994); assay: competition electrochemiluminescence, antibody on HER2-coated plate, biotinylated FcγRIIb-Fc; competitor FcγRIIaR-Fc at 10x
# [27] = target: Soluble FcγRIIaR extracellular domain with C-terminal 10×His tag (UniProt P12318); assay: SPR; KD ratio against wild-type v16463
# [28] = target: Soluble FcγRIIb extracellular domain with C-terminal 10×His tag (UniProt P31994); assay: SPR; KD ratio against wild-type v16463
# [29] = target: Soluble FcγRIIaR extracellular domain with C-terminal 10×His tag (UniProt P12318); assay: SPR, antibody captured on HER2 chip, receptor as analyte
# [30] = target: Soluble FcγRIIb extracellular domain with C-terminal 10×His tag (UniProt P31994); assay: as above
# [31] = target: Soluble FcγRIIb extracellular domain with C-terminal 10×His tag (UniProt P31994); assay: SPR; ratio of IIb-Fold to IIaR-Fold (FcγRIIb against FcγRIIaR)
substance,measurement,setting,value
"Variant 31509 (trastuzumab full-size antibody, Azymetric heterodimeric IgG1 Fc, no CH2 mutations; parental scaffold)",Kd,FcγRI,0.067 nM
same,Kd,FcγRIIIaV,1190 nM
same,Kd,FcγRIIaH,1150 nM
same,Kd,FcγRIIaR [1],1520 nM
same,Kd,FcγRIIb [2],4.2 µM
"Variant 22127, full-size antibody (FSA) format of v19540 (trastuzumab, heterodimeric IgG1 Fc; A: L234D_G236N_S267A / B: G236D_S239D_V266L_S267A_H268D)",IIb/IIaR Selectivity (IIb-Fold/IIaR-Fold),[3],15.2
same,IIaR-fold (fold change in affinity over wild-type),[4],1.6 fold
same,IIb-fold (fold change in affinity over wild-type),[5],23.9 fold
"Variant 16463, wild-type one-armed antibody (Scaffold 2: one trastuzumab Fab and heterodimeric IgG1 Fc)",Kd,FcγRIIaR [6],360 nM
"Variant 32292, trastuzumab full-size antibody (chain A L235D_strat2; chain B D329*I_I332L-strat1)",IIb Selectivity (IIb-Fold/IIaR-Fold),FcγRIIb [7],78 fold
same,C1q Binding (% WT),[8],2 % WT
same,IIb-fold (fold change in affinity over wild-type),FcγRIIb [9],451 fold
same,IIaR-fold (fold change in affinity over wild-type),FcγRIIaR [10],6 fold
"Variant 22128, full-size antibody (FSA) format of v19585 (trastuzumab, heterodimeric IgG1 Fc; A: L234F_G236N_H268Q_K274Q_A327G_A330K_P331S / B: L234F_G236D_S239D_V266L_S267A_H268D_K274Q_A327G_A330S_P331S)",IIb/IIaR Selectivity (IIb-Fold/IIaR-Fold),[3],11.3
same,IIaR-fold (fold change in affinity over wild-type),[4],3.3 fold
same,IIb-fold (fold change in affinity over wild-type),[5],37.4 fold
"Variant 26751 (A_E272W_strat2), one-armed trastuzumab antibody with heterodimeric IgG1 Fc",IIb-Fold wrt Control,[11],0.6 fold
same,IIb Selectivity Improvement wrt Control,[12],0.8 fold
same,IIb Selectivity (IIb-Fold/IIaR-Fold),[13],11.2 fold
same,IIaR-fold (fold change in affinity over wild-type),[14],5.4 fold
same,IIb-fold (fold change in affinity over wild-type),[15],60.1 fold
"v27362, strat3_control (A_G236N_G237A B_G236D_G237F_S239D_S267V_H268D) (antibody)",Kd,[16],150 nM
"v12 (IIb-specific comparator, symmetrical E233D_G237D_P238D_H268D_P271G_A330R) (antibody)",IIaR-Fold (affinity fold over WT v16463),[17],1.4 fold
same,Kd,[17],220 nM
same,IIb-Fold (affinity fold over WT v16463),[18],112 fold
same,Kd,[18],13 nM
same,IIb Selectivity (IIb-Fold/IIaR-Fold),[19],80.5
same,ELISA (% of non-competed FcγRIIb signal in presence of 10x FcγRIIa),[20],100%
"Variant 32295, trastuzumab full-size antibody (chain A P329I_strat2; chain B D329*I_I332L-strat1)",IIb Selectivity (IIb-Fold/IIaR-Fold),FcγRIIb [7],82 fold
same,C1q Binding (% WT),[8],-1 % WT
same,IIb-fold (fold change in affinity over wild-type),FcγRIIb [9],103 fold
same,IIaR-fold (fold change in affinity over wild-type),FcγRIIaR [10],1 fold
Variant 27293 (strat1_control; Launching Module 1: A_G236N_G237A B_G236D_G237F_S239D_S267V_H268D_Template_1) (antibody),IIaR-Fold (affinity fold over WT v16463),[17],35.2 fold
same,IIaR-Fold wrt Control (v27293),[17],1 fold
same,Kd,[17],8.8 nM
same,IIb-Fold (affinity fold over WT v16463),[18],415 fold
same,IIb-Fold wrt Control (v27293),[18],1 fold
same,Kd,[18],3.5 nM
same,IIb Selectivity (IIb-Fold/IIaR-Fold),[19],11.8
same,IIb Selectivity Fold wrt Control (v27293),[19],1 fold
same,ELISA (% of non-competed FcγRIIb signal in presence of 10x FcγRIIa),[20],70.8%
"Variant 26747 (A_E272V_strat2), one-armed trastuzumab antibody with heterodimeric IgG1 Fc",IIb-Fold wrt Control,[11],1 fold
same,IIb Selectivity Improvement wrt Control,[12],1.1 fold
same,IIb Selectivity (IIb-Fold/IIaR-Fold),[13],14.9 fold
same,IIaR-fold (fold change in affinity over wild-type),[14],6 fold
same,IIb-fold (fold change in affinity over wild-type),[15],89.7 fold
"v12, IIb-specific comparator with symmetrical E233D_G237D_P238D_H268D_P271G_A330R (Mimoto et al. 2013) (antibody)",IIb Selectivity,[21],80.5
same,IIaR-fold,[22],1.4 fold
same,IIb-Fold,[23],112 fold
same,Kd,[24],220 nM
same,Kd,[25],13 nM
same,ELISA (% of non-competed FcγRIIb signal in presence of 10x FcγRIIa),[26],100%
"Variant 31522 (trastuzumab full-size antibody, electrostatic steering heterodimeric IgG1 Fc, no CH2 mutations; parental scaffold)",Kd,FcγRI,0.071 nM
same,Kd,FcγRIIIaV,1600 nM
same,Kd,FcγRIIaH,1530 nM
same,Kd,FcγRIIaR [1],2090 nM
same,Kd,FcγRIIb [2],6.34 µM
"Variant 16463, wild-type one-armed trastuzumab antibody with heterodimeric IgG1 Fc (Scaffold 2)",IIaR-fold,[27],1 fold
same,IIb-Fold,[28],1 fold
same,Kd,[29],310 nM
same,Kd,[30],1400 nM
same,IIb Selectivity (IIb-Fold/IIaR-Fold),[31],1 fold
"Variant 26752 (A_E272Y_strat2), one-armed trastuzumab antibody with heterodimeric IgG1 Fc",IIb-Fold wrt Control,[11],0.9 fold
same,IIb Selectivity Improvement wrt Control,[12],1.3 fold
same,IIb Selectivity (IIb-Fold/IIaR-Fold),[13],17.5 fold
same,IIaR-fold (fold change in affinity over wild-type),[14],4.6 fold
same,IIb-fold (fold change in affinity over wild-type),[15],79.8 fold
"Variant 31521 (trastuzumab full-size antibody, knobs-into-holes heterodimeric IgG1 Fc, no CH2 mutations; parental scaffold)",Kd,FcγRI,0.098 nM
same,Kd,FcγRIIIaV,1890 nM
same,Kd,FcγRIIaR [1],2590 nM
same,Kd,FcγRIIb [2],7.74 µM
"Variant 32293, trastuzumab full-size antibody (chain A S267A_strat2; chain B D329*I_I332L-strat1)",IIb Selectivity (IIb-Fold/IIaR-Fold),FcγRIIb [7],58 fold
same,C1q Binding (% WT),[8],2 % WT
same,IIb-fold (fold change in affinity over wild-type),FcγRIIb [9],323 fold
same,IIaR-fold (fold change in affinity over wild-type),FcγRIIaR [10],6 fold
